In the RNAGym collection of RNA variant scans (doi:10.1093/molbev/msab373) one finds reverse-splicing fitness data, which are given here for 15 variants.

B1: Azoarcus group I ribozyme (parent)
chain: GUGCCUUGCGCCGGGAAACCACGCAAGGGAUGGUGUCAAAUUCGGCGAAACCUAAGCGCCCGCCCGGGCGUAUGGCAACGCCGAGCCAAGCUUCGGCGCCUGCGCCGAUGAAGGUGUAGAGACUAGACGGCACCCACCUAAGGCAAACGCUAUGGUGAAGGCAUAGUCCAGGGAGUGGCGAAAGUCACACAAACCGG

In this data set the parent is B1. Nature of the data set: reverse-splicing fitness (ratio to wild type); higher = more active; in vitro selection; Mg2+ level not given. In a few lines:
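An in vitro group I ribozyme library with randomized positions was T7-transcribed and gel-purified. In triplicate, 10 pmol RNA in EPPS pH 7.5 was reacted with 50 pmoles of a 30-nt RNA substrate for 1 h at 37 °C across several added MgCl2 levels (1–48 mM), then stopped with EDTA. Products were reverse transcribed from a substrate-complementary primer, PCR-amplified and sequenced (HiSeq 4000). Fitness is a variant's read proportion after selection over that before, normalised to wild type.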
Regarding GUGCCUUGCGCCGGGAAACCACGCAAGGGAUGGUGUCAAAUUCGGCGAAACCUAAGCGCCCGCCCGGGCGUAUGGCAACGCAGAGCCAAGCUUCGGCGCCUGCGCCGAUGUAGGUGUAGAGACUAGACGGCACCCACCUAAGGCCAACGCUAUGGUGAAGGCAUAGUCCAGGGAGGGGCGAAAGUCACACAAACCGG, the reverse-splicing fitness turned out to be 0.0253.

With GUGCCUUGCGCCGGGAAACCACGCAAGGGAUGGUGUCAAAUUCGGCGAAACCUAAGCGCCCGCCCGGGCGUAUGGCAACGCAGAGCCAAGCUUCGGCGCCUGCGCCGAUGUAGGUGUAGAGACUAGACGGCACCCACCUAAGGCCAACGCUAUGGUGAAGGCAUAGUCCAGGGAGCGGCGAAAGUCACACAAACCGG, the reverse-splicing fitness was 0.126.

For GUGCCUUGCGCCGGGAAACCACGCAAGGGAUGGUGUCAAAUUCGGCGAAACCUAAGCGCCCGCCCGGGCGUAUGGCAACGCAGAGCCAAGCUUCGGCGCCUGCGCCGAUGUAGGUGUAGAGACUAGACGGCACCCACCUAAGGCCAACGCUAUGGUGAAGGCAUAGUCCAGGGAGAGGCGAAAGUCACACAAACCGG, the reverse-splicing fitness was determined as 0.0948.

Consider GUGCCUUGCGCCGGGAAACCACGCAAGGGAUGGUGUCAAAUUCGGCGAAACCUAAGCGCCCGCCCGGGCGUAUGGCAACGCAGAGCCAAGCUUCGGCGCCUGCGCCGAUGUAGGUGUAGAGACUAGACGGCACCCACCUAAGGCGAACGAUAUGGUGAAGGCAUAGUCGAGGGAGGGGCGAAAGUCACACAAACCGG, for which the reverse-splicing fitness stood at 0.00681.

Regarding GUGCCUUGCGCCGGGAAACCACGCAAGGGAUGGUGUCAAAUUCGGCGAAACCUAAGCGCCCGCCCGGGCGUAUGGCAACGCAGAGCCAAGCUUCGGCGCCUGCGCCGAUGUAGGUGUAGAGACUAGACGGCACCCACCUAAGGCGAACGAUAUGGUGAAGGCAUAGUCGAGGGAGCGGCGAAAGUCACACAAACCGG, the reverse-splicing fitness is 0.027.

On to GUGCCUUGCGCCGGGAAACCACGCAAGGGAUGGUGUCAAAUUCGGCGAAACCUAAGCGCCCGCCCGGGCGUAUGGCAACGCAGAGCCAAGCUUCGGCGCCUGCGCCGAUGUAGGUGUAGAGACUAGACGGCACCCACCUAAGGCGAACGAUAUGGUGAAGGCAUAGUCGAGGGAGAGGCGAAAGUCACACAAACCGG, for which the reverse-splicing fitness was 0.0183.

In the case of GUGCCUUGCGCCGGGAAACCACGCAAGGGAUGGUGUCAAAUUCGGCGAAACCUAAGCGCCCGCCCGGGCGUAUGGCAACGCAGAGCCAAGCUUCGGCGCCUGCGCCGAUGUAGGUGUAGAGACUAGACGGCACCCACCUAAGGCCAACGUUAUGGUGAAGGCAUAGUCCAGGGAGGGGCGAAAGUCACACAAACCGG, the reverse-splicing fitness is 0.0107.

As to GUGCCUUGCGCCGGGAAACCACGCAAGGGAUGGUGUCAAAUUCGGCGAAACCUAAGCGCCCGCCCGGGCGUAUGGCAACGCAGAGCCAAGCUUCGGCGCCUGCGCCGAUGUAGGUGUAGAGACUAGACGGCACCCACCUAAGGCCAACGUUAUGGUGAAGGCAUAGUCCAGGGAGCGGCGAAAGUCACACAAACCGG, the reverse-splicing fitness is 0.0396.

Take GUGCCUUGCGCCGGGAAACCACGCAAGGGAUGGUGUCAAAUUCGGCGAAACCUAAGCGCCCGCCCGGGCGUAUGGCAACGCAGAGCCAAGCUUCGGCGCCUGCGCCGAUGUAGGUGUAGAGACUAGACGGCACCCACCUAAGGCCAACGCUAUGGUGAAGGCAUAGUCAAGGGAGAGGCGAAAGUCACACAAACCGG: the reverse-splicing fitness worked out at 0.0109.

Turning to GUGCCUUGCGCCGGGAAACCACGCAAGGGAUGGUGUCAAAUUCGGCGAAACCUAAGCGCCCGCCCGGGCGUAUGGCAACGCAGAGCCAAGCUUCGGCGCCUGCGCCGAUGUAGGUGUAGAGACUAGACGGCACCCACCUAAGGCCAACGCUAUGGUGAAGGCAUAGUCAAGGGAGGGGCGAAAGUCACACAAACCGG, the reverse-splicing fitness was 0.00702.

In the case of GUGCCUUGCGCCGGGAAACCACGCAAGGGAUGGUGUCAAAUUCGGCGAAACCUAAGCGCCCGCCCGGGCGUAUGGCAACGCAGAGCCAAGCUUCGGCGCCUGCGCCGAUGUAGGUGUAGAGACUAGACGGCACCCACCUAAGGCCAACGCUAUGGUGAAGGCAUAGUCAAGGGAGCGGCGAAAGUCACACAAACCGG, the reverse-splicing fitness was 0.00816.

With GUGCCUUGCGCCGGGAAACCACGCAAGGGAUGGUGUCAAAUUCGGCGAAACCUAAGCGCCCGCCCGGGCGUAUGGCAACGCAGAGCCAAGCUUCGGCGCCUGCGCCGAUGUAGGUGUAGAGACUAGACGGCACCCACCUAAGGCCAACGCUAUGGUGAAGGCAUAGUCAAGGGAGUGGCGAAAGUCACACAAACCGG, the reverse-splicing fitness stood at 0.00733.

For GUGCCUUGCGCCGGGAAACCACGCAAGGGAUGGUGUCAAAUUCGGCGAAACCUAAGCGCCCGCCCGGGCGUAUGGCAACGCAGAGCCAAGCUUCGGCGCCUGCGCCGAUGUAGGUGUAGAGACUAGACGGCACCCACCUAAGGCCAACGCUAUGGUGAAGGCAUAGUCGAGGGAGUGGCGAAAGUCACACAAACCGG, the reverse-splicing fitness came out at 0.00993.

As for GUGCCUUGCGCCGGGAAACCACGCAAGGGAUGGUGUCAAAUUCGGCGAAACCUAAGCGCCCGCCCGGGCGUAUGGCAACGCAGAGCCAAGCUUCGGCGCCUGCGCCGAUGUAGGUGUAGAGACUAGACGGCACCCACCUAAGGCCAACGCUAUGGUGAAGGCAUAGUCUAGGGAGUGGCGAAAGUCACACAAACCGG, the reverse-splicing fitness was 0.0123.

Take GUGCCUUGCGCCGGGAAACCACGCAAGGGAUGGUGUCAAAUUCGGCGAAACCUAAGCGCCCGCCCGGGCGUAUGGCAACGCAGAGCCAAGCUUCGGCGCCUGCGCCGAUGUAGGUGUAGAGACUAGACGGCACCCACCUAAGGCGAACGAUAUGGUGAAGGCAUAGUCCAGGGAGUGGCGAAAGUCACACAAACCGG: the reverse-splicing fitness came out at 0.0371.
